From PMC10397247
Blank lines part the entries; values can stand above or below the binder they belong to.

Experiments:
4H1068-AA = target: T1, 4H1068-AA; assay: two-hybrid library CCmax;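 further: natural log of median RNA to DNA barcode read ratio; higher means stronger binding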
T1 chain: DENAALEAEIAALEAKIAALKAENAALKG

4H121-AA = target: T2, 4H121-AA; assay: two-hybrid library CCmax; conditions: mean of both orientations;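 further: natural log of median RNA to DNA barcode read ratio; higher means stronger binding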
T2 chain: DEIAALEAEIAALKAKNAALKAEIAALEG

4H1350-AA = target: T3, 4H1350-AA; assay: two-hybrid library CCmax; conditions: mean of both orientations;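 further: natural log of median RNA to DNA barcode read ratio; higher means stronger binding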
T3 chain: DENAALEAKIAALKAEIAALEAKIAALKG

4H1710-AA = target: T4, 4H1710-AA; assay: two-hybrid library CCmax; conditions: mean of both orientations;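 further: natural log of median RNA to DNA barcode read ratio; higher means stronger binding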
T4 chain: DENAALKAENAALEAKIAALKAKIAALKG

4H1985-AA = target: T5, 4H1985-AA; assay: two-hybrid library CCmax; conditions: mean of both orientations
T5 chain: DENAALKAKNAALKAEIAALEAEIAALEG

4H2187-AA = target: T6, 4H2187-AA; assay: two-hybrid library CCmax; conditions: mean of both orientations
T6 chain: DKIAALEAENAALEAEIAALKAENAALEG

4H233-AA = target: T7, 4H233-AA; assay: two-hybrid library CCmax; conditions: mean of both orientations
T7 chain: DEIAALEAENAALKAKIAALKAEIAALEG

4H2512-AA = target: T8, 4H2512-AA; assay: two-hybrid library CCmax; conditions: mean of both orientations
T8 chain: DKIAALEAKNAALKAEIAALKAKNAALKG

4H2646-AA = target: T9, 4H2646-AA; assay: two-hybrid library CCmax; conditions: mean of both orientations
T9 chain: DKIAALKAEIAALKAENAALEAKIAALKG

4H2687-AA = target: T10, 4H2687-AA; assay: two-hybrid library CCmax; conditions: mean of both orientations
T10 chain: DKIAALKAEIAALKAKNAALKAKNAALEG

4H2705-AA = target: T11, 4H2705-AA; assay: two-hybrid library CCmax; conditions: mean of both orientations
T11 chain: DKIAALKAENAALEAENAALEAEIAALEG

4H2758-AA = target: T12, 4H2758-AA; assay: two-hybrid library CCmax; conditions: mean of both orientations
T12 chain: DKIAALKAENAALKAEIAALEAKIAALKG

4H278-AA = target: T13, 4H278-AA; assay: two-hybrid library CCmax; conditions: mean of both orientations
T13 chain: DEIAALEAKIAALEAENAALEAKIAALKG

4H2873-AA = target: T14, 4H2873-AA; assay: two-hybrid library CCmax; conditions: mean of both orientations
T14 chain: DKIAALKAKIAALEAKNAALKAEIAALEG

4H2985-AA = target: T15, 4H2985-AA; assay: two-hybrid library CCmax; conditions: mean of both orientations
T15 chain: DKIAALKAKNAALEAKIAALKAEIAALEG

4H3134-AA = target: T16, 4H3134-AA; assay: two-hybrid library CCmax; conditions: mean of both orientations
T16 chain: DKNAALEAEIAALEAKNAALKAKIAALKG

4H3409-AA = target: T17, 4H3409-AA; assay: two-hybrid library CCmax; conditions: mean of both orientations
T17 chain: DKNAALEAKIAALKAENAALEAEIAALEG

4H3625-AA = target: T18, 4H3625-AA; assay: two-hybrid library CCmax; conditions: mean of both orientations
T18 chain: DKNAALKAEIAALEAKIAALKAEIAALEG

4H390-AA = target: T19, 4H390-AA; assay: two-hybrid library CCmax; conditions: mean of both orientations
T19 chain: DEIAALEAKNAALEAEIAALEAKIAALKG

4H3940-AA = target: T20, 4H3940-AA; assay: two-hybrid library CCmax; conditions: mean of both orientations
T20 chain: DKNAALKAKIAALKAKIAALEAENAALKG

4H510-AA = target: T21, 4H510-AA; assay: two-hybrid library CCmax; conditions: mean of both orientations
T21 chain: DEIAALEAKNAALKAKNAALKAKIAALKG

4H775-AA = target: T22, 4H775-AA; assay: two-hybrid library CCmax; conditions: mean of both orientations
T22 chain: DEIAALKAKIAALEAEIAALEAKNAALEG

4H816-AA = target: T23, 4H816-AA; assay: two-hybrid library CCmax; conditions: mean of both orientations
T23 chain: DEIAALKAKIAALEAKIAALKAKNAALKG

4H87-AA = target: T24, 4H87-AA; assay: two-hybrid library CCmax; conditions: mean of both orientations
T24 chain: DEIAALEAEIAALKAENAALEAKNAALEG

Core_NNNN-es_KKKE = target: T25, Core_NNNN-es_KKKE; assay: two-hybrid library CCmax; conditions: mean of both orientations
T25 chain: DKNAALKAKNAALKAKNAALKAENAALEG

Core_NNIN-es_KEKK = target: T26, Core_NNIN-es_KEKK; assay: two-hybrid library CCmax; conditions: mean of both orientations
T26 chain: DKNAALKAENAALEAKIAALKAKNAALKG

4H1222-bA = target: T27, 4H1222-bA; assay: two-hybrid library CCNG1
T27 chain: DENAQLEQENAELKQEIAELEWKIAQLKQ

4H1338-bA = target: T28, 4H1338-bA; assay: two-hybrid library CCNG1
T28 chain: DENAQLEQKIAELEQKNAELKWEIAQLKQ

4H1348-bA = target: T29, 4H1348-bA; assay: two-hybrid library CCNG1
T29 chain: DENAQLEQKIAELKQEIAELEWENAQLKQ

4H1359-bA = target: T30, 4H1359-bA; assay: two-hybrid library CCNG1
T30 chain: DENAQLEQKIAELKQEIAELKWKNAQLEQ

4H1373-bA = target: T31, 4H1373-bA; assay: two-hybrid library CCNG1
T31 chain: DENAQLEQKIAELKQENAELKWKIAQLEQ

4H1393-bA = target: T32, 4H1393-bA; assay: two-hybrid library CCNG1
T32 chain: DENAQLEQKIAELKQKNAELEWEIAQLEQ

4H1449-bA = target: T33, 4H1449-bA; assay: two-hybrid library CCNG1
T33 chain: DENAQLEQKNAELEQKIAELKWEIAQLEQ

4H1544-bA = target: T34, 4H1544-bA; assay: two-hybrid library CCNG1
T34 chain: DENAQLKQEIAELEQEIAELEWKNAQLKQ

4H1629-bA = target: T35, 4H1629-bA; assay: two-hybrid library CCNG1
T35 chain: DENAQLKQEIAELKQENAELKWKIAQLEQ

4H1710-bA = target: T36, 4H1710-bA; assay: two-hybrid library CCNG1
T36 chain: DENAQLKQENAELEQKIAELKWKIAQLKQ

4H1804-bA = target: T37, 4H1804-bA; assay: two-hybrid library CCNG1
T37 chain: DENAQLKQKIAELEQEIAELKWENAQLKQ

4H1899-bA = target: T38, 4H1899-bA; assay: two-hybrid library CCNG1
T38 chain: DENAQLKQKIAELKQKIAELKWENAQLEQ

4H1985-bA = target: T39, 4H1985-bA; assay: two-hybrid library CCNG1
T39 chain: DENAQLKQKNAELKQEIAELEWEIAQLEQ

4H3129-bA = target: T40, 4H3129-bA; assay: two-hybrid library CCNG1
T40 chain: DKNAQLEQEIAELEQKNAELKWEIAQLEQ

4H3172-bA = target: T41, 4H3172-bA; assay: two-hybrid library CCNG1
T41 chain: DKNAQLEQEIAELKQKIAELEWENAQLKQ

4H3414-bA = target: T42, 4H3414-bA; assay: two-hybrid library CCNG1
T42 chain: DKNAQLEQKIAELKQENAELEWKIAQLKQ

4H3613-bA = target: T43, 4H3613-bA; assay: two-hybrid library CCNG1
T43 chain: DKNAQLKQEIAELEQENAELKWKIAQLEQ

4H3628-bA = target: T44, 4H3628-bA; assay: two-hybrid library CCNG1
T44 chain: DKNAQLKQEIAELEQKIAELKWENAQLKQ

4H3631-bA = target: T45, 4H3631-bA; assay: two-hybrid library CCNG1
T45 chain: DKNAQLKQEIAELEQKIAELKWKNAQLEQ

4H3638-bA = target: T46, 4H3638-bA; assay: two-hybrid library CCNG1
T46 chain: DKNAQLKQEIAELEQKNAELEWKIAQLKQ

4H3817-bA = target: T47, 4H3817-bA; assay: two-hybrid library CCNG1
T47 chain: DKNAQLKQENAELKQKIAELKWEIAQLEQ

4H3858-bA = target: T48, 4H3858-bA; assay: two-hybrid library CCNG1
T48 chain: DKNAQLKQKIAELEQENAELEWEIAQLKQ

4H3974-bA = target: T49, 4H3974-bA; assay: two-hybrid library CCNG1
T49 chain: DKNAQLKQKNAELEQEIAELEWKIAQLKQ

4H570-bA = target: T50, 4H570-bA; assay: two-hybrid library CCNG1
T50 chain: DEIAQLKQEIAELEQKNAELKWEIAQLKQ

4H584-bA = target: T51, 4H584-bA; assay: two-hybrid library CCNG1
T51 chain: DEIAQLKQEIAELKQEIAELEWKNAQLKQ

4H619-bA = target: T52, 4H619-bA; assay: two-hybrid library CCNG1
T52 chain: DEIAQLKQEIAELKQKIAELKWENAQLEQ

4H850-bA = target: T53, 4H850-bA; assay: two-hybrid library CCNG1
T53 chain: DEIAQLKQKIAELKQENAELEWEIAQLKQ

4H906-bA = target: T54, 4H906-bA; assay: two-hybrid library CCNG1
T54 chain: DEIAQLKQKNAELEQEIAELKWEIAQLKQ

Core_NIII-es_KKEK = target: T55, Core_NIII-es_KKEK; assay: two-hybrid library CCmax; conditions: mean of both orientations
T55 chain: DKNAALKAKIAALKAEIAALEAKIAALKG

Core_NNNN-es_KKKK = target: T56, Core_NNNN-es_KKKK; assay: two-hybrid library CCmax; conditions: mean of both orientations
T56 chain: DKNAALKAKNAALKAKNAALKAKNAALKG

P5SH = target: T57, P5SH; assay: two-hybrid library CCNG1
T57 chain: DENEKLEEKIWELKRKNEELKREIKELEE

P6SH [1] = target: T58, P6SH; assay: two-hybrid library CCNG1
T58 chain: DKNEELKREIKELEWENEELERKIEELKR

P7SH = target: T59, P7SH; assay: two-hybrid library CCNG1
T59 chain: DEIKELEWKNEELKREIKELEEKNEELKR

P8SH = target: T60, P8SH; assay: two-hybrid library CCNG1
T60 chain: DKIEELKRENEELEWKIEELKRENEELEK

P6SH [2] = target: T58, P6SH; assay: two-hybrid library CCmax; conditions: mean of both orientations

interaction score (Core_NNNN-es_KKKE): 0.962
B2: Core_NNNN-es_EEEK (peptide)
chain: DENAALEAENAALEAENAALEAKNAALKG

interaction score (Core_NNIN-es_KEKK): 1.32
B3: Core_NNIN-es_EKEE (peptide)
chain: DENAALEAKNAALKAEIAALEAENAALEG

interaction score (Core_NIII-es_KKEK): 2.17
B5: Core_NIII-es_EEKE (peptide)
chain: DENAALEAEIAALEAKIAALKAEIAALEG

interaction score (Core_NNNN-es_KKKK): 1.53
B6: Core_NNNN-es_EEEE (peptide)
chain: DENAALEAENAALEAENAALEAENAALEG

The remaining lines, values behind:

B1: 4H1068-AA (peptide)
chain: DENAALEAEIAALEAKIAALKAENAALKG
interaction score (4H1068-AA): 0.409
interaction score (4H121-AA): -0.866
interaction score (4H1350-AA): 0.695
interaction score (4H1710-AA): -1.11
interaction score (4H1985-AA): 0.534
interaction score (4H2187-AA): -1.71
interaction score (4H233-AA): 0.754
interaction score (4H2512-AA): -1.06
interaction score (4H2646-AA): -0.0619
interaction score (4H2687-AA): 0.562
interaction score (4H2705-AA): -1.15
interaction score (4H2758-AA): -1.99
interaction score (4H278-AA): -0.737
interaction score (4H2873-AA): -0.197
interaction score (4H2985-AA): -0.0876
interaction score (4H3134-AA): -0.167
interaction score (4H3409-AA): -1.36
interaction score (4H3625-AA): -0.226
interaction score (4H390-AA): -0.217
interaction score (4H3940-AA): 2.05
interaction score (4H510-AA): -1.05
interaction score (4H775-AA): -0.238
interaction score (4H816-AA): 0.372
interaction score (4H87-AA): -0.863

B4: 4H1222-bA (peptide)
chain: DENAQLEQENAELKQEIAELEWKIAQLKQ
interaction score (4H1222-bA): 0.532
interaction score (4H1338-bA): 0.202
interaction score (4H1348-bA): 0.605
interaction score (4H1359-bA): -0.0139
interaction score (4H1373-bA): -0.665
interaction score (4H1393-bA): 0.0501
interaction score (4H1449-bA): 0.729
interaction score (4H1544-bA): 0.517
interaction score (4H1629-bA): -0.826
interaction score (4H1710-bA): 2.36
interaction score (4H1804-bA): -0.0181
interaction score (4H1899-bA): 1.1
interaction score (4H1985-bA): 1.8
interaction score (4H3129-bA): -1.85
interaction score (4H3172-bA): 0.388
interaction score (4H3414-bA): -0.0927
interaction score (4H3613-bA): -0.452
interaction score (4H3628-bA): -0.374
interaction score (4H3631-bA): 0.222
interaction score (4H3638-bA): -0.958
interaction score (4H3817-bA): 1.18
interaction score (4H3858-bA): -0.31
interaction score (4H3974-bA): 0.693
interaction score (4H570-bA): 0.341
interaction score (4H584-bA): -1.36
interaction score (4H619-bA): -1.01
interaction score (4H850-bA): -0.2
interaction score (4H906-bA): -0.403

B7: P5SH (peptide)
chain: DENEKLEEKIWELKRKNEELKREIKELEE
interaction score (P5SH): -0.706
interaction score (P6SH [1]): 1.84
interaction score (P7SH): -0.619
interaction score (P8SH): 0.809
interaction score (P6SH [2]): 0.801
